In publication PMC7736812:

Target: 70S ribosomes from E. coli MRE600 (vacant) (E. coli)
Test: stopped-flow Rayleigh light scattering (325 nm) of 70S dissociation; 70S ribosomes (0.05 uM) rapidly mixed with increasing GTPBP6 with 0.5 mM GTP, phosphoenol pyruvate and pyruvate kinase; 50 mM Tris-HCl pH 7.5, 70 mM NH4Cl, 30 mM KCl, 7 mM MgCl2, 37°C; kapp against GTPBP6 concentration, linear fit: slope = association, intercept = dissociation rate constant, Kd from their ratio

Kd: 700 nM
koff: 0.09 s⁻¹
kon: 130000 M⁻¹ s⁻¹
B1: GTPBP6Δ43 (purified recombinant GTPBP6) (domain or fragment)
chain: PGNLEGPWGGGRGLRADGGRSRTGDDEEEPEDADENAEEELLRGEPLLPAGTQRVCLVHPDVKWGPGKSQMTRAEWQVAEATALVHTLDGWSVVQTMVVSTKTPDRKLIFGKGNFEHLTEKIRGSPDITCVFLNVERMAAPTKKELEAAWGVEVFDRFTVVLHIFRCNARTKEARLQVALAEMPLHRSNLKRDVAHLYRGVGSRYIMGSGESFMQLQQRLLREKEAKIRKALDRLRKKRHLLRRQRTRREFPVISVVGYTNCGKTTLIKALTGDAAIQPRDQLFATLDVTAHAGTLPSRMTVLYVDTIGFLSQLPHGLIESFSATLEDVAHSDLILHVRDVSHPEAELQKCSVLSTLRGLQLPAPLLDSMVEVHNKVDLVPGYSPTEPNVVPVSALRGHGLQELKAELDAAVLKATGRQILTLRVRLAGAQLSWLYKEATVQEVDVIPEDGAADVRVIISNSAYGKFRKLFPG
